Data published in publication PMC9482650, “Quantitative fragmentomics allow affinity mapping of interactomes” (Nature Communications, 2022).
Values belong to the binder of their own block, whether it stands above or below them.

What was measured:
Test in all cases: holdup assay
Design in all cases: key: below the threshold = too weak to quantify, mostly under pKd 3.1 to 4
MPDZ_12, O75970 = biological target: T1, MPDZ_12, O75970
T1 sequence (O75970 1857-1958, limits assumed, looked up): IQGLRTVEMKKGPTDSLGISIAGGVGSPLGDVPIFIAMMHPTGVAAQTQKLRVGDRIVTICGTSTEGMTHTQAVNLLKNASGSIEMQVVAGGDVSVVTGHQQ

GRIP1_7, Q9Y3R0 = biological target: T2, GRIP1_7, Q9Y3R0
T2 sequence (Q9Y3R0 999-1096, limits assumed, looked up): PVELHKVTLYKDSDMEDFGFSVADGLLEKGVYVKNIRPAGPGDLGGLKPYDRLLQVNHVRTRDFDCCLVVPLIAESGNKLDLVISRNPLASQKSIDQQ

NHERF3_3, Q5T2W1 = biological target: T3, NHERF3_3, Q5T2W1
T3 sequence (Q5T2W1 238-333, limits assumed, looked up): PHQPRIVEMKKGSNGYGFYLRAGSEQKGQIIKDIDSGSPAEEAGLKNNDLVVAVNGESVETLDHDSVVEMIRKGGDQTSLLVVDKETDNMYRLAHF

MAGI1_1, Q96QZ7 = biological target: MAGI1_1, Q96QZ7
Chain of MAGI1_1, Q96QZ7 (Q96QZ7 1-106): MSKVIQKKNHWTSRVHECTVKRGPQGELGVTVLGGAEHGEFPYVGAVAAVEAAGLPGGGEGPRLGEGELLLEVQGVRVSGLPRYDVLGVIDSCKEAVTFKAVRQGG

ARHGEF12, Q9NZN5-2 = biological target: ARHGEF12, Q9NZN5-2
Chain of ARHGEF12, Q9NZN5-2 (Q9NZN5 other isoform, or with tags, fused parts or gaps): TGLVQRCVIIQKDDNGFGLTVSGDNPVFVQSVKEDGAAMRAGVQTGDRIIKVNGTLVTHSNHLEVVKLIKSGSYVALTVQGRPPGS

GRIP2_4, Q9C0E4 = biological target: GRIP2_4, Q9C0E4
Chain of GRIP2_4, Q9C0E4 (Q9C0E4 446-548): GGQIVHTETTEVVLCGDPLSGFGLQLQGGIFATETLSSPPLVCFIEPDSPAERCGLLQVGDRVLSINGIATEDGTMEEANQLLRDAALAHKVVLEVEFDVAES

GRID2IP_1, A4D2P6 = biological target: GRID2IP_1, A4D2P6
Chain of GRID2IP_1, A4D2P6 (A4D2P6 1-87): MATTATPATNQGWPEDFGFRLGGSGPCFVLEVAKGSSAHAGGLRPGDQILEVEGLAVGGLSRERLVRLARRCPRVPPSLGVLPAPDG

GRIP1_3, Q9Y3R0 = biological target: T4, GRIP1_3, Q9Y3R0
T4 sequence (Q9Y3R0 247-346, limits assumed, looked up): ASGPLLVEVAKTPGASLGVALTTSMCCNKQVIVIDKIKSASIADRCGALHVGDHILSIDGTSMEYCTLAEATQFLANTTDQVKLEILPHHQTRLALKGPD

MAGI2_2, Q86UL8 = biological target: MAGI2_2, Q86UL8
Chain of MAGI2_2, Q86UL8 (Q86UL8 410-522): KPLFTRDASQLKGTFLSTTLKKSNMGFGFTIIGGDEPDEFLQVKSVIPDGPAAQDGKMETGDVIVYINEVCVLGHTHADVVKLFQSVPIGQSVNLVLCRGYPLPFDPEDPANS

GRID2IP_2, A4D2P6 = biological target: GRID2IP_2, A4D2P6
Chain of GRID2IP_2, A4D2P6 (A4D2P6 272-370): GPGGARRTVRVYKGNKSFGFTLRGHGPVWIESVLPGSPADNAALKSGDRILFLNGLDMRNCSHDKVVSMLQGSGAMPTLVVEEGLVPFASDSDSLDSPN

PDLIM1, O00151 = biological target: PDLIM1, O00151
Chain of PDLIM1, O00151 (O00151 1-87): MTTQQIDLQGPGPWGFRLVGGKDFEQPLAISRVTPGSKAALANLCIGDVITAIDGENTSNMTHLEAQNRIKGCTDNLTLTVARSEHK

CARD11, Q9BXL7 = biological target: T5, CARD11, Q9BXL7
T5 sequence (Q9BXL7 662-765, limits assumed, looked up): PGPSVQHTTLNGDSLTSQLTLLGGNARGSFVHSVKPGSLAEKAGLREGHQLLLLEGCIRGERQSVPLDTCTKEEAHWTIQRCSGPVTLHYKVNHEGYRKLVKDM

LNX2_3, Q8N448 = biological target: T6, LNX2_3, Q8N448
T6 sequence (Q8N448 463-564, limits assumed, looked up): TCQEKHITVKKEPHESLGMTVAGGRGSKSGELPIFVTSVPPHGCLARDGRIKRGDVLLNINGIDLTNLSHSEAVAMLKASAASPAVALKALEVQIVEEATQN

MAGI2_5, Q86UL8 = biological target: MAGI2_5, Q86UL8
Chain of MAGI2_5, Q86UL8 (Q86UL8 915-1017): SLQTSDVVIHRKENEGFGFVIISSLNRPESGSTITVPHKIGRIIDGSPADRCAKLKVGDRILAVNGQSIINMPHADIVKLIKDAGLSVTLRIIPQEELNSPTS

LIMK2, P53671 = biological target: LIMK2, P53671
Chain of LIMK2, P53671 (P53671 143-248): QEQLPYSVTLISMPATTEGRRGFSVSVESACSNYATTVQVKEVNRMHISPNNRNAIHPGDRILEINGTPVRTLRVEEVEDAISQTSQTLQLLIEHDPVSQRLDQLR

SIPA1L2, Q9P2F8 = biological target: T7, SIPA1L2, Q9P2F8
T7 sequence (Q9P2F8 945-1036, limits assumed, looked up): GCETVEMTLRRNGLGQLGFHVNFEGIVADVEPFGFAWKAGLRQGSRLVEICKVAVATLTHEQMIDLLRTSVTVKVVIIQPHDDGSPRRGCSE

IL16_1, Q14005 = conditions: plain residues with an end cap or a label only (N-terminal biotin on a linker: ahx)
Chain of IL16_1, Q14005 (Q14005 210-306): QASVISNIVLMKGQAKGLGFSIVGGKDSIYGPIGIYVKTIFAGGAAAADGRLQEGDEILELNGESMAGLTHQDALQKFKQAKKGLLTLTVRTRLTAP

CASK, O14936 = biological target: CASK, O14936
Chain of CASK, O14936 (O14936 487-570): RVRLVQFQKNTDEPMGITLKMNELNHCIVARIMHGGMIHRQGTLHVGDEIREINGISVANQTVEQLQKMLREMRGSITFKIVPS

FRMPD2_2, Q68DX3 = biological target: FRMPD2_2, Q68DX3
Chain of FRMPD2_2, Q68DX3 (Q68DX3 944-1038): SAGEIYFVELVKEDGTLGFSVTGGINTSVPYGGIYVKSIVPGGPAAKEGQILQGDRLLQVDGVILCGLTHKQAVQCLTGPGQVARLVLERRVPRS

LNX1_2, Q8TBB1 = biological target: LNX1_2, Q8TBB1
Chain of LNX1_2, Q8TBB1 (Q8TBB1 371-470): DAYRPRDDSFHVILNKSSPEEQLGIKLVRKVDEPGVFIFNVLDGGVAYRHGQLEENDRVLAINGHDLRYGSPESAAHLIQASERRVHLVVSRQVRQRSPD

Inadl_9, Q8NI35 = biological target: Inadl_9, Q8NI35
Chain of Inadl_9, Q8NI35 (Q8NI35 1530-1615): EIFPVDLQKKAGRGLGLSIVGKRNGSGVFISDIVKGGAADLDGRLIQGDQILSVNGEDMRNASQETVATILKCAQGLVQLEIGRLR

DFNB31_1, Q9P202 = biological target: T8, DFNB31_1, Q9P202
T8 sequence (Q9P202 135-233, limits assumed, looked up): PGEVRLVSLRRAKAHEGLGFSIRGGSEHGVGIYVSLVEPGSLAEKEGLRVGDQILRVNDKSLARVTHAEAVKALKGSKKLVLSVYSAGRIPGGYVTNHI

NHERF4_4, Q86UT5 = biological target: NHERF4_4, Q86UT5
Chain of NHERF4_4, Q86UT5 (Q86UT5 464-550): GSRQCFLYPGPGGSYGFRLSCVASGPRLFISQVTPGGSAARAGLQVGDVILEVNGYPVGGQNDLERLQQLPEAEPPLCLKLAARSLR

RADIL, Q96JH8 = biological target: T9, RADIL, Q96JH8
T9 sequence (Q96JH8 971-1071, limits assumed, looked up): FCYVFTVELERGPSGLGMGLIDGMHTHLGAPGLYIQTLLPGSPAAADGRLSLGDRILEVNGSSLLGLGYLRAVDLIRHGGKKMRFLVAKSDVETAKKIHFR

APBA2_2, Q99767 = biological target: T10, APBA2_2, Q99767
T10 sequence (Q99767 654-744, limits assumed, looked up): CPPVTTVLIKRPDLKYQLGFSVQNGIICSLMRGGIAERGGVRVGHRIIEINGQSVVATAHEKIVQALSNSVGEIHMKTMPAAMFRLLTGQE

Inadl_6, Q8NI35 = biological target: Inadl_6, Q8NI35
Chain of Inadl_6, Q8NI35 (Q8NI35 1058-1167): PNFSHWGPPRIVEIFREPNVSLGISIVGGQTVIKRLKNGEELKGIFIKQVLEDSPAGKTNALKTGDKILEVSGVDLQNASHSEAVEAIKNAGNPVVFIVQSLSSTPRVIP

GRIP1_2, Q9Y3R0 = biological target: T11, GRIP1_2, Q9Y3R0; conditions: plain residues with an end cap or a label only (N-terminal biotin on a linker: ahx)
T11 sequence (Q9Y3R0 145-248, limits assumed, looked up): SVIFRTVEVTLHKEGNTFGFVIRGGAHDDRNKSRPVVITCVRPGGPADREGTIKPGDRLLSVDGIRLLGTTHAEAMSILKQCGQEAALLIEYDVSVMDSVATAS

[1] = plain residues with an end cap or a label only (N-terminal biotin on a linker: ahx)
[2] = plain residues with an end cap or a label only (N-terminal biotin on a linker: ttds)

- pKd (MPDZ_12, O75970; [1]): below the threshold
- pKd (GRIP1_7, Q9Y3R0; [1]): below the threshold
- pKd (NHERF3_3, Q5T2W1; [1]): below the threshold
- pKd (MAGI1_1, Q96QZ7; [1]): below the threshold
- pKd (ARHGEF12, Q9NZN5-2; [1]): 4.26
- pKd (GRIP2_4, Q9C0E4; [1]): below the threshold
- pKd (GRID2IP_1, A4D2P6; [1]): below the threshold
- pKd (GRIP1_3, Q9Y3R0; [1]): below the threshold
- pKd (MAGI2_2, Q86UL8; [1]): below the threshold
- pKd (GRID2IP_2, A4D2P6; [1]): below the threshold
- pKd (PDLIM1, O00151; [1]): 3.61
- pKd (CARD11, Q9BXL7; [1]): below the threshold
- pKd (LNX2_3, Q8N448; [1]): below the threshold
- pKd (MAGI2_5, Q86UL8; [1]): below the threshold
- pKd (LIMK2, P53671; [1]): below the threshold
- pKd (SIPA1L2, Q9P2F8; [1]): below the threshold
- pKd (IL16_1, Q14005): below the threshold
- pKd (CASK, O14936; [1]): below the threshold
- pKd (FRMPD2_2, Q68DX3; [1]): below the threshold
- pKd (LNX1_2, Q8TBB1; [1]): below the threshold
- pKd (Inadl_9, Q8NI35; [1]): below the threshold
- pKd (DFNB31_1, Q9P202; [1]): below the threshold
- pKd (NHERF4_4, Q86UT5; [1]): below the threshold
- pKd (RADIL, Q96JH8; [1]): below the threshold
- pKd (APBA2_2, Q99767; [1]): below the threshold
- pKd (Inadl_6, Q8NI35; [1]): below the threshold
Binder: GIFPTLTSPL [SHROOM3, Q8TF72]

- pKd (MPDZ_12, O75970; [2]): below the threshold
- pKd (GRIP1_7, Q9Y3R0; [2]): below the threshold
- pKd (NHERF3_3, Q5T2W1; [2]): 3.67
- pKd (MAGI1_1, Q96QZ7; [2]): below the threshold
- pKd (ARHGEF12, Q9NZN5-2; [2]): 4.2
- pKd (GRIP2_4, Q9C0E4; [2]): below the threshold
- pKd (GRID2IP_1, A4D2P6; [2]): below the threshold
- pKd (GRIP1_3, Q9Y3R0; [2]): below the threshold
- pKd (MAGI2_2, Q86UL8; [2]): below the threshold
- pKd (GRID2IP_2, A4D2P6; [2]): 4.03
- pKd (PDLIM1, O00151; [2]): below the threshold
- pKd (CARD11, Q9BXL7; [2]): below the threshold
- pKd (LNX2_3, Q8N448; [2]): below the threshold
- pKd (MAGI2_5, Q86UL8; [2]): 4.15
- pKd (LIMK2, P53671; [2]): below the threshold
- pKd (SIPA1L2, Q9P2F8; [2]): below the threshold
- pKd (CASK, O14936; [2]): 3.47
- pKd (FRMPD2_2, Q68DX3; [2]): 4.19
- pKd (LNX1_2, Q8TBB1; [2]): 3.77
- pKd (Inadl_9, Q8NI35; [2]): below the threshold
- pKd (DFNB31_1, Q9P202; [2]): 3.86
- pKd (NHERF4_4, Q86UT5; [2]): below the threshold
- pKd (RADIL, Q96JH8; [2]): 3.91
- pKd (APBA2_2, Q99767; [2]): below the threshold
- pKd (Inadl_6, Q8NI35; [2]): 3.82
Binder: DEDQHTQITKV [PTEN, P60484]

- pKd (MPDZ_12, O75970; [1]): below the threshold
- pKd (GRIP1_7, Q9Y3R0; [1]): below the threshold
- pKd (NHERF3_3, Q5T2W1; [1]): below the threshold
- pKd (MAGI1_1, Q96QZ7; [1]): below the threshold
- pKd (GRIP2_4, Q9C0E4; [1]): below the threshold
- pKd (GRID2IP_1, A4D2P6; [1]): below the threshold
- pKd (GRIP1_3, Q9Y3R0; [1]): below the threshold
- pKd (MAGI2_2, Q86UL8; [1]): 4.11
- pKd (GRIP1_2, Q9Y3R0): below the threshold
- pKd (PDLIM1, O00151; [1]): below the threshold
- pKd (CARD11, Q9BXL7; [1]): below the threshold
- pKd (LNX2_3, Q8N448; [1]): below the threshold
- pKd (LIMK2, P53671; [1]): below the threshold
- pKd (SIPA1L2, Q9P2F8; [1]): below the threshold
- pKd (CASK, O14936; [1]): below the threshold
- pKd (FRMPD2_2, Q68DX3; [1]): below the threshold
- pKd (LNX1_2, Q8TBB1; [1]): below the threshold
- pKd (Inadl_9, Q8NI35; [1]): below the threshold
- pKd (DFNB31_1, Q9P202; [1]): below the threshold
- pKd (NHERF4_4, Q86UT5; [1]): below the threshold
- pKd (RADIL, Q96JH8; [1]): 3.99
- pKd (APBA2_2, Q99767; [1]): below the threshold
- pKd (Inadl_6, Q8NI35; [1]): below the threshold
Binder: LCKSHAFSHV [PDLIM7, Q9NR12;Q9NR12-1]
